Source: paper PMC9897555 (2023)

Target: Spike protein S1 C-terminal domain 319-674 (Severe acute respiratory syndrome …, UniProt P0DTC2)
Assay: flow

B1: LRRC15 (protein)
chain: YHGCPSECTCSRASQVECTGARIVAVPTPLPWNAMSLQILNTHITELNESPFLNISALIALRIEKNELSRITPGAFRNLGSLRYLSLANNKLQVLPIGLFQGLDSLESLLLSSNQLLQIQPAHFSQCSNLKELQLHGNHLEYIPDGAFDHLVGLTKLNLGKNSLTHISPRVFQHLGNLQVLRLYENRLTDIPMGTFDGLVNLQELALQQNQIGLLSPGLFHNNHNLQRLYLSNNHISQLPPSVFMQLPQLNRLTLFGNSLKELSPGIFGPMPNLRELWLYDNHISSLPDNVFSNLRQLQVLILSRNQISFISPGAFNGLTELRELSLHTNALQDLDGNVFRMLANLQNISLQNNRLRQLPGNIFANVNGLMAIQLQNNQLENLPLGIFDHLGKLCELRLYDNPWRCDSDILPLRNWLLLNQPRLGTDTVPVCFSPANVRGQSLIIINVNVAVPSVHVPEVPSYPETPWYPDTPSYPDTTSVSSTTELTSPVEDYTDLTTIQVTDDRSVWGMTQAQSG
With B1 the Kd was ~260 nM.
